Results published in the supplement of paper PMC5998384.

Tests used:
HeLa Kyoto [1] = test: solubility in G1/S (NP-40 vs SDS abundance) (log2 ratio); higher = more soluble; details: cell cycle stage: G1/S
HeLa Kyoto [2] = test: solubility change mitosis vs G1/S (difference of NP-40 vs SDS log2 ratios) (log2 ratio difference); higher = more soluble in mitosis
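Throughout, for solubility change mitosis vs G1/S (difference of NP-40 vs SDS log2 ratios): synchronized HeLa Kyoto cells (double thymidine block for G1/S, nocodazole release for mitosis), protein amounts in NP-40 versus SDS lysates quantified by mass spectrometry, three biological replicates.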
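Throughout, for solubility in G1/S (NP-40 vs SDS abundance): HeLa Kyoto cells arrested at G1/S by double thymidine block, proteins quantified by TMT10plex mass spectrometry in mild NP-40 versus SDS extracts, three biological replicates.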

Sequence: MRRKGRCHRGSAARHPSSPCSVKHSPTRETLTYAQAQRMVEIEIEGRLHRISIFDPLEIILEDDLTAQEMSECNSNKENSERPPVCLRTKRHKNNRVKKKNEALPSAHGTPASASALPEPKVRIVEYSPPSAPRRPPVYYKFIEKSAEELDNEVEYDMDEEDYAWLEIVNEKRKGDCVPAVSQSMFEFLMDRFEKESHCENQKQGEQQSLIDEDAVCCICMDGECQNSNVILFCDMCNLAVHQECYGVPYIPEGQWLCRHCLQSRARPADCVLCPNKGGAFKKTDDDRWGHVVCALWIPEVGFANTVFIEPIDGVRNIPPARWKLTCYLCKQKGVGACIQCHKANCYTAFHVTCAQKAGLYMKMEPVKELTGGGTTFSVRKTAYCDVHTPPGCTRRPLNIYGDVEMKNGVCRKESSVKTVRSTSKVRKKAKKAKKALAEPCAVLPTVCAPYIPPQRLNRIANQVAIQRKKQFVERAHSYWLLKRLSRNGAPLLRRLQSSLQSQRSSQQRENDEEMKAAKEKLKYWQRLRHDLERARLLIELLRKREKLKREQVKVEQVAMELRLTPLTVLLRSVLDQLQDKDPARIFAQPVSLKEVPDYLDHIKHPMDFATMRKRLEAQGYKNLHEFEEDFDLIIDNCMKYNARDTVFYRAAVRLRDQGGVVLRQARREVDSIGLEEASGMHLPERPAAAPRRPFSWEDVDRLLDPANRAHLGLEEQLRELLDMLDLTCAMKSSGSRSKRAKLLKKEIALLRNKLSQQHSQPLPTGPGLEGFEEDGAALGPEAGEEVLPRLETLLQPRKRSRSTCGDSEVEEESPGKRLDAGLTNGFGGARSEQEPGGGLGRKATPRRRCASESSISSSNSPLCDSSFNAPKCGRGKPALVRRHTLEDRSELISCIENGNYAKAARIAAEVGQSSMWISTDAAASVLEPLKVVWAKCSGYPSYPALIIDPKMPRVPGHHNGVTIPAPPLDVLKIGEHMQTKSDEKLFLVLFFDNKRSWQWLPKSKMVPLGIDETIDKLKMMEGRNSSIRKAVRIAFDRAMNHLSRVHGEPTSDLSDID [BRD1]
- solubility in G1/S (log2) (HeLa Kyoto [1]): -0.879
- solubility change mitosis (log2) (HeLa Kyoto [2]): 0.194

Sequence: MRRSRSSAAAKLRGQKRSGASGASAAPAASAAAALAPSATRTRRSASQAGSKSQAVEKPPSEKPRLRRSSPRAQEEGPGEPPPPELALLPPPPPPPPTPATPTSSASNLDLGEQRERWETFQKRQKLTSEGAAKLLLDTFEYQGLVKHTGGCHCGAVRFEVWASADLHIFDCNCSICKKKQNRHFIVPASRFKLLKGAEHITTYTFNTHKAQHTFCKRCGVQSFYTPRSNPGGFGIAPHCLDEGTVRSMVTEEFNGSDWEKAMKEHKTIKNMSKE [CENPV]
- solubility in G1/S (log2) (HeLa Kyoto [1]): -2.01
- solubility change mitosis (log2) (HeLa Kyoto [2]): 0.822

Sequence: MRSLRKKREKPRPEQWKGLPGPPRAPEPEDVAVPGGVDLLTLPQLCFPGGVCVATEPKEDCVHFLVLTDVCGNRTYGVVAQYYRPLHDEYCFYNGKTHRECPGCFVPFAVCVVSRFPYYNSLKDCLSCLLALLKPCKDFEVDSHIKDFAAKLSLIPSPPPGPLHLVFNMKSLQIVLPARADPESPILDLDLHLPLLCFRPEKVLQILTCILTEQRIVFFSSDWALLTLVTECFMAYLYPLQWQHPFVPILSDQMLDFVMAPTSFLMGCHLDHFEEVSKEADGLVLINIDHGSITYSKSTDDNVDIPDVPLLAAQTFIQRVQSLQLHHELHAAHLLSSTDLKEGRAHRRSWQQKLNCQIQQTTLQLLVSIFRDVKNHLNYEHRVFNSEEFLKTRAPGDHQFYKQVLDTYMFHSFLKARLNRRMDAFAQMDLDTQSEEDRINGMLLSPRRPTVEKRASRKSSHLHVTHRRMVVSMPNLQDIAMPELAPRNSSLRLTDTAGCRGSSAVLNVTPKSPYTFKIPEIHFPLESKCVQAYHAHFVSMLSEAMCFLAPDNSLLLARYLYLRGLVYLMQGQLLNALLDFQNLYKTDIRIFPTDLVKRTVESMSAPEWEGAEQAPELMRLISEILDKPHEASKLDDHVKKFKLPKKHMQLGDFMKRVQESGIVKDASIIHRLFEALTVGQEKQIDPETFKDFYNCWKETEAEAQEVSLPWLVMEHLDKNECVCKLSSSVKTNLGVGKIAMTQKRLFLLTEGRPGYLEISTFRNIEEVRRTTTTFLLRRIPTLKIRVASKKEVFEANLKTECDLWHLMVKEMWAGKKLADDHKDPHYVQQALTNVLLMDAVVGTLQSPGAIYAASKLSYFDKMSNEMPMTLPETTLETLKHKINPSAGEAFPQAVDVLLYTPGHLDPAEKVEDAHPKLWCALSEGKVTVFNASSWTIHQHSFKVGTAKVNCMVMADQNQVWVGSEDSVIYIINVHSMSCNKQLTAHCSSVTDLIVQDGQEAPSNVYSCSMDGMVLVWNVSTLQVTSRFQLPRGGLTSIRLHGGRLWCCTGNSIMVMKMNGSLHQELKIEENFKDTSTSFLAFQLLPEEEQLWAACAGRSEVYIWSLKDLAQPPQRVPLEDCSEINCMIRVKKQVWVGSRGLGQGTPKGKIYVIDAERKTVEKELVAHMDTVRTLCSAEDRYVLSGSGREEGKVAIWKGE [DENND3]
- solubility in G1/S (log2) (HeLa Kyoto [1]): -0.339
- solubility change mitosis (log2) (HeLa Kyoto [2]): -0.197

Sequence: MSANNSPPSAQKSVLPTAIPAVLPAASPCSSPKTGLSARLSNGSFSAPSLTNSRGSVHTVSFLLQIGLTRESVTIEAQELSLSAVKDLVCSIVYQKFPECGFFGMYDKILLFRHDMNSENILQLITSADEIHEGDLVEVVLSALATVEDFQIRPHTLYVHSYKAPTFCDYCGEMLWGLVRQGLKCEGCGLNYHKRCAFKIPNNCSGVRKRRLSNVSLPGPGLSVPRPLQPEYVALPSEESHVHQEPSKRIPSWSGRPIWMEKMVMCRVKVPHTFAVHSYTRPTICQYCKRLLKGLFRQGMQCKDCKFNCHKRCASKVPRDCLGEVTFNGEPSSLGTDTDIPMDIDNNDINSDSSRGLDDTEEPSPPEDKMFFLDPSDLDVERDEEAVKTISPSTSNNIPLMRVVQSIKHTKRKSSTMVKEGWMVHYTSRDNLRKRHYWRLDSKCLTLFQNESGSKYYKEIPLSEILRISSPRDFTNISQGSNPHCFEIITDTMVYFVGENNGDSSHNPVLAATGVGLDVAQSWEKAIRQALMPVTPQASVCTSPGQGKDHKDLSTSISVSNCQIQENVDISTVYQIFADEVLGSGQFGIVYGGKHRKTGRDVAIKVIDKMRFPTKQESQLRNEVAILQNLHHPGIVNLECMFETPERVFVVMEKLHGDMLEMILSSEKSRLPERITKFMVTQILVALRNLHFKNIVHCDLKPENVLLASAEPFPQVKLCDFGFARIIGEKSFRRSVVGTPAYLAPEVLRSKGYNRSLDMWSVGVIIYVSLSGTFPFNEDEDINDQIQNAAFMYPPNPWREISGEAIDLINNLLQVKMRKRYSVDKSLSHPWLQDYQTWLDLREFETRIGERYITHESDDARWEIHAYTHNLVYPKHFIMAPNPDDMEEDP [PRKD3]
- solubility in G1/S (log2) (HeLa Kyoto [1]): -0.25
- solubility change mitosis (log2) (HeLa Kyoto [2]): -0.119

Sequence: MSEIRKDTLKAILLELECHFTWNLLKEDIDLFEVEDTIGQQLEFLTTKSRLALYNLLAYVKHLKGQNKDALECLEQAEEIIQQEHSDKEEVRSLVTWGNYAWVYYHMDQLEEAQKYTGKIGNVCKKLSSPSNYKLECPETDCEKGWALLKFGGKYYQKAKAAFEKALEVEPDNPEFNIGYAITVYRLDDSDREGSVKSFSLGPLRKAVTLNPDNSYIKVFLALKLQDVHAEAEGEKYIEEILDQISSQPYVLRYAAKFYRRKNSWNKALELLKKALEVTPTSSFLHHQMGLCYRAQMIQIKKATHNRPKGKDKLKVDELISSAIFHFKAAMERDSMFAFAYTDLANMYAEGGQYSNAEDIFRKALRLENITDDHKHQIHYHYGRFQEFHRKSENTAIHHYLEALKVKDRSPLRTKLTSALKKLSTKRLCHNALDVQSLSALGFVYKLEGEKRQAAEYYEKAQKIDPENAEFLTALCELRLSI [IFIT5]
- solubility in G1/S (log2) (HeLa Kyoto [1]): 0.129
- solubility change mitosis (log2) (HeLa Kyoto [2]): 0.0621

Sequence: MSELKDCPLQFHDFKSVDHLKVCPRYTAVLARSEDDGIGIEELDTLQLELETLLSSASRRLRVLEAETQILTDWQDKKGDRRFLKLGRDHELGAPPKHGKPKKQKLEGKAGHGPGPGPGRPKSKNLQPKIQEYEFTDDPIDVPRIPKNDAPNRFWASVEPYCADITSEEVRTLEELLKPPEDEAEHYKIPPLGKHYSQRWAQEDLLEEQKDGARAAAVADKKKGLMGPLTELDTKDVDALLKKSEAQHEQPEDGCPFGALTQRLLQALVEENIISPMEDSPIPDMSGKESGADGASTSPRNQNKPFSVPHTKSLESRIKEELIAQGLLESEDRPAEDSEDEVLAELRKRQAELKALSAHNRTKKHDLLRLAKEEVSRQELRQRVRMADNEVMDAFRKIMAARQKKRTPTKKEKDQAWKTLKERESILKLLDG [TADA3]
- solubility in G1/S (log2) (HeLa Kyoto [1]): 0.646
- solubility change mitosis (log2) (HeLa Kyoto [2]): 0.286

Sequence: MSFKREGDDWSQLNVLKKRRVGDLLASYIPEDEALMLRDGRFACAICPHRPVLDTLAMLTAHRAGKKHLSSLQLFYGKKQPGKERKQNPKHQNELRREETKAEAPLLTQTRLITQSALHRAPHYNSCCRRKYRPEAPGPSVSLSPMPPSEVKLQSGKISREPEPAAGPQAEESATVSAPAPMSPTRRRALDHYLTLRSSGWIPDGRGRWVKDENVEFDSDEEEPPDLPLD [SCNM1]
- solubility in G1/S (log2) (HeLa Kyoto [1]): 0.0519
- solubility change mitosis (log2) (HeLa Kyoto [2]): 0.462

Sequence: MSFRGGGRGGFNRGGGGGGFNRGGSSNHFRGGGGGGGGGNFRGGGRGGFGRGGGRGGFNKGQDQGPPERVVLLGEFLHPCEDDIVCKCTTDENKVPYFNAPVYLENKEQIGKVDEIFGQLRDFYFSVKLSENMKASSFKKLQKFYIDPYKLLPLQRFLPRPPGEKGPPRGGGRGGRGGGRGGGGRGGGRGGGFRGGRGGGGGGFRGGRGGGFRGRGH [GAR1]
- solubility in G1/S (log2) (HeLa Kyoto [1]): -1.36
- solubility change mitosis (log2) (HeLa Kyoto [2]): 1.41

Sequence: MSGPCGEKPVLEASPTMSLWEFEDSHSRQGTPRPGQELAAEEASALELQMKVDFFRKLGYSSTEIHSVLQKLGVQADTNTVLGELVKHGTATERERQTSPDPCPQLPLVPRGGGTPKAPNLEPPLPEEEKEGSDLRPVVIDGSNVAMSHGNKEVFSCRGILLAVNWFLERGHTDITVFVPSWRKEQPRPDVPITDQHILRELEKKKILVFTPSRRVGGKRVVCYDDRFIVKLAYESDGIVVSNDTYRDLQGERQEWKRFIEERLLMYSFVNDKFMPPDDPLGRHGPSLDNFLRKKPLTLEHRKQPCPYGRKCTYGIKCRFFHPERPSCPQRSVADELRANALLSPPRAPSKDKNGRRPSPSSQSSSLLTESEQCSLDGKKLGAQASPGSRQEGLTQTYAPSGRSLAPSGGSGSSFGPTDWLPQTLDSLPYVSQDCLDSGIGSLESQMSELWGVRGGGPGEPGPPRAPYTGYSPYGSELPATAAFSAFGRAMGAGHFSVPADYPPAPPAFPPREYWSEPYPLPPPTSVLQEPPVQSPGAGRSPWGRAGSLAKEQASVYTKLCGVFPPHLVEAVMGRFPQLLDPQQLAAEILSYKSQHPSE [ZC3H12A]
- solubility in G1/S (log2) (HeLa Kyoto [1]): 0.15
- solubility change mitosis (log2) (HeLa Kyoto [2]): -0.0716

Sequence: MSGSDGGLEEEPELSITLTLRMLMHGKEVGSIIGKKGETVKRIREQSSARITISEGSCPERITTITGSTAAVFHAVSMIAFKLDEDLCAAPANGGNVSRPPVTLRLVIPASQCGSLIGKAGTKIKEIRETTGAQVQVAGDLLPNSTERAVTVSGVPDAIILCVRQICAVILESPPKGATIPYHPSLSLGTVLLSANQGFSVQGQYGAVTPAEVTKLQQLSSHAVPFATPSVVPGLDPGTQTSSQEFLVPNDLIGCVIGRQGSKISEIRQMSGAHIKIGNQAEGAGERHVTITGSPVSIALAQYLITACLETAKSTSGGTPSSAPADLPAPFSPPLTALPTAPPGLLGTPYAISLSNFIGLKPMPFLALPPASPGPPPGLAAYTAKMAAANGSKKAERQKFSPY [PCBP4]
- solubility in G1/S (log2) (HeLa Kyoto [1]): 0.0231
- solubility change mitosis (log2) (HeLa Kyoto [2]): 0.0329
